Experimental findings from paper PMC9678781 (The Journal of Biological Chemistry, 2022) are described below.

In test [1] the target is SARS-CoV-2 Spike S1 subdomain (aa 2-682), 8xHis-tagged (SARS-CoV-2 Wuhan-Hu-1, UniProt P0DTC2). Put plainly: flow cytometry on cells. The note with it: one partner purified.
The target of test [2] is SARS-CoV-2 Spike S2 subdomain (aa 686-1211), 8xHis-tagged (SARS-CoV-2 Wuhan-Hu-1, UniProt P0DTC2). Put plainly: flow cytometry on cells. The note with it: one partner purified.

B1: B9-scFv displayed on the 293T cell surface (pBovShow) (scFv)
VH: QVQLRESGPSLVKPSQTLSLTCTASGFSLSDKAVGWVRQAPGKALEWLGGIDTGGSTGYNPGLKSRLSITKDNSKSQISLSVSSVTTEDSATYYCTTVHQRDSCPYDSSHSQYCSYGWSCGVYNCRPAVWYRYGSCGTCDNLFSYVDAWGQGLLVTVSS
VL: QAVLNQPSSVSGSLGQRVSITCSGSSSNVGNGYVSWYQLIPGSAPRTLIYGDTSRASGVPDRFSGSRSGNTATLTISSLQAEDEADYFCASAEDSSSNAVFGSRTTLTVL
Regarding B1, the binding result in test [1] is listed as “binds”; in test [2], “no binding (tested: 2 μM)”.
